According to US20240317858A1 (Adimab, published 2024):

Experiments:
[1] = biological target: T1, Rhesus CD3εδ Fc heterodimer (rhesus); test: BLI (Octet), Fab monovalent, pH 7.4
T1 construct: extracellular domain; also called Rh CD3εδ-Fc
Experimental: (§1) ForteBio KD measurements (Biolayer interferometry; BLI). ForteBio affinity measurements were performed generally as previously described (Estep, P., et al., High throughput solution-based measurement of antibody-antigen affinity and epitope binning. MAbs, 2013. 5(2): p. 270-8.). Briefly, ForteBio affinity measurements were performed by loading IgGs or CD3εδ Fe-HIS heterodimer onto AHC sensors. Sensors were equilibrated off-line in assay buffer for 30 min and then monitored on-line for 60 seconds for baseline establishment. Sensors with loaded IgGs were exposed to 100 nM antigen (e.g., CD3) for 3 min, afterwards they were transferred to assay buffer for 10 min for off-rate measurement. Sensors loaded with CD3εδ Fe-HIS heterodimer were exposed to 100 nM anti-CD3 Fab for 3 min, afterwards they were transferred to assay buffer for 3 min or 10 min for off-rate measurement. Kinetics were analyzed using the 1:1 binding model. For measuring binding at different pHs, measurements were performed at pre-determined pHs (e.g., pH 7.4 and pH 6.0).
(§2) Anti-CD3 antibodies A001-A005, V002, V004, V007, V009, V010, V013, and V014-V019 were produced as IgG1s in CHO cells, and Fab fragments were generated from IgG1 antibodies by papain digestion and purification as described in Example 2. Human, cynomolgus, rhesus, and mouse CD3εδ Fc heterodimers were produced, and monovalent binding affinity and avidity at pH 7.4 and pH 6.0 were measured using the Octet® HTX instrument (ForteBio) as described in Example 2.

[2] = biological target: T2, Human CD3εδ Fc heterodimer (Hu CD3ε Fc + CD3δ Fc-HIS) (human, UniProt P07766 22-126; P04234 22-100); test: BLI (Octet), Fab monovalent, pH 7.4
T2 construct: range 22-126;range 22-100; Made in HEK 293 cells with a heterologous signal peptide; also called Hu CD3εδ-Fc; CD3εδ Fc-HIS heterodimer; not shown: Fc; Fc followed by HIS tag
T2 sequence (P07766 22-126, stated change not applied, form in doubt, chain 1 of 2): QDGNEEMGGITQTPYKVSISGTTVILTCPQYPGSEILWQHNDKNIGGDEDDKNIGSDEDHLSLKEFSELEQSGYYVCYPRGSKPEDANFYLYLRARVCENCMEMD
T2 sequence (P04234 22-100, stated change not applied, form in doubt, chain 2 of 2): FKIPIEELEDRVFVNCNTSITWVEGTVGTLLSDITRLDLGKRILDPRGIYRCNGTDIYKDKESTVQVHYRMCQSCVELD
Experimental: as §1, §2

[3] = biological target: T3, Cynomolgus CD3εδ Fc heterodimer (Cy CD3ε Fc + CD3δ Fc-HIS) (cynomolgus, UniProt Q95LI5 22-117; Q95LI8 22-100); test: BLI (Octet), Fab monovalent, pH 7.4
T3 construct: range 22-117;range 22-100; Made in HEK 293 cells with a heterologous signal peptide; also called Cy CD3εδ-Fc; cyno CD3εδ Fc; not shown: Fc; Fc followed by HIS tag
T3 sequence (Q95LI5 22-117, stated change not applied, form in doubt, chain 1 of 2): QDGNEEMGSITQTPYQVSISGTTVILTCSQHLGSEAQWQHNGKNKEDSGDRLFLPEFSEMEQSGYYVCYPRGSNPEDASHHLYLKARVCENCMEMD
T3 sequence (Q95LI8 22-100, stated change not applied, form in doubt, chain 2 of 2): as the sequence (P04234 22-100, stated change not applied, form in doubt, chain 2 of 2) above, with I5V, N15K, I20V, S32T, D33N, I34N, T64A, S74N counted along it
Experimental: as §1, §2

[4] = biological target: T2, Human CD3εδ Fc heterodimer (Hu CD3ε Fc …); test: BLI (Octet), CD3εδ Fc on AHC sensor, 100 nM Fab
Experimental: (§3) Affinity of the anti-CD3 antibodies for CD3 was determined by measuring their kinetic constants (kₒₙ, koff, KD) on ForteBio Octet®. ForteBio affinity measurements were performed generally as previously described (Estep et al., MAbs. 2013 5(2):270-8). […] Sensors were equilibrated off-line in assay buffer for 30 minutes and then monitored on-line for 60 seconds for baseline establishment. For monovalent binding measurement, sensors with loaded CD3εδ Fc were exposed to 100 nM anti-CD3 Fab, as further described in Example 2 below] for 3 minutes, afterwards they were transferred to assay buffer for 3 minutes for off-rate measurement. Kinetics data were fit using a 1:1 binding model in the data analysis software provided by ForteBio.

[5] = biological target: T3, Cynomolgus CD3εδ Fc heterodimer (Cy …); test: BLI (Octet), CD3εδ Fc on AHC sensor, 100 nM Fab
Experimental: as §3

[6] = biological target: T2, Human CD3εδ Fc heterodimer (Hu CD3ε Fc …); test: BLI (Octet), Fab monovalent, pH 6.0
Experimental: as §1, §2

[7] = biological target: T3, Cynomolgus CD3εδ Fc heterodimer (Cy …); test: BLI (Octet), Fab monovalent, pH 6.0
Experimental: as §1, §2

[8] = biological target: T2, Human CD3εδ Fc heterodimer (Hu CD3ε Fc …); test: SPR (Biacore), Fab over immobilized CD3εδ Fc, pH 6.0
Experimental: (§4) Anti-CD3 antibodies A001-A005, V002, V004, V007, V009, V010, V013, and V014-V019 were produced in CHO cells, and Fab fragments were generated from IgG1 antibodies by papain digestion and purification as described in Example 2. Monovalent binding affinity at pH 7.4 and pH 6.0 was measured via surface plasmon resonance (SPR). Briefly, human or cynomolgus CD3εδ Fe heterodimer produced as described in Example 2 was immobilized to a CM5 sensor chip in a Biacore® X100 (Cytiva, previously GE Healthcare Life Sciences) to a response level of ˜500 RUs. Fabs were then injected at 3-fold increasing concentrations, ranging from 0.74-180 nM. The sensor chip was doubly regenerated between cycles using 0.35 M EDTA and 0.1 M NaOH. The resulting data were double reference subtracted and fit to a 1:1 binding model using Biacore® Evaluation Software.

[9] = biological target: T3, Cynomolgus CD3εδ Fc heterodimer (Cy …); test: as above
Experimental: as §4

[10] = biological target: T2, Human CD3εδ Fc heterodimer (Hu CD3ε Fc …); test: SPR (Biacore), Fab over immobilized CD3εδ Fc, pH 7.4
Experimental: as §4

[11] = biological target: T3, Cynomolgus CD3εδ Fc heterodimer (Cy …); test: as above
Experimental: as §4

B1: Antibody No. V002 (ADI-67445) Fab (Fab, V domains shown)
VH: QVQLVQSGAEVKKPGASVKVSCKASGFNIKDYYMHWVRQAPGQRLEWMGWIDLENAETIYDAKFQDRVTITRDTSASTAYMELSSLRSEDTAVYYCARDAYGRYFYDEWGQGTLVTVSS
VL: DIVMTQSPDSLAVSLGERATINCKSSQSLLNARTGKNYLAWYQQKPGQPPKLLIYWASTRESGVPDRFSGSGSGTDFTLTISSLQAEDVAVYYCKQSYSRRTFGGGTKVEIK
notes: Fab by papain digestion of the IgG1
Kd [1]: 15 nM
Kd [2]: 13 nM
Kd [3]: 12 nM
Kd [4]: 7.84 nM
Kd [5]: 7.33 nM
Kd [6]: 8.8 nM
Kd [7]: 8 nM
Kd [8]: 4.2 nM
Kd [9]: 3.3 nM

B2: Antibody No. V006 (ADI-67449) Fab (Fab, V domains shown)
VH: QVQLVQSGAEVKKPGASVKVSCKASGFNDKDYYMHWVRQAPGQRLEWMGWIDLENAETIYDAKFQDRVTITRDTSASTAYMELSSLRSEDTAVYYCARDAYGRYFYDVWGQGTLVTVSS
VL: DIVMTQSPDSLAVSLGERATINCKSSQSLLNARTGKNYLAWYQQKPGQPPKLLIYWASTRESGVPDRFSGSGSGTDFTLTISSLQAEDVAVYYCKQSYSRRTFGGGTKVEIK
notes: as for B1
Kd [4]: 7.97 nM
Kd [5]: 8.15 nM

B3: Antibody No. V009 (ADI-70326) Fab (Fab, V domains shown)
VH: QVQLVQSGAEVKKPGASVKVSCKASGFDIKDYYMHWVRQAPGQRLEWIGWIELENADTVYDAKFQGRVTITRDTSASTAYMELSSLRSEDTAVYYCARDAYGRYFYDVWGQGTLVTVSS
VL: DIVMSQSPDSLAVSLGERATINCKSSQSLLNARTGKNYLAWYQQKPGQPPKLLIYWASTRSSGVPDRFSGSGSGTDFTLTISSLQAEDVAVYYCVQSYFRRTFGGGTKVEIK
notes: as for B1
Kd [1]: 1.8 nM
Kd [2]: 1.6 nM
Kd [3]: 1.9 nM
Kd [4]: 0.81 nM
Kd [5]: 0.81 nM
Kd [6]: 1.2 nM
Kd [7]: 1.6 nM
Kd [10]: 0.14 nM
Kd [11]: 0.15 nM
Kd [8]: 1.1 nM
Kd [9]: 0.24 nM

B4: Antibody No. V015 (ADI-76358) Fab (Fab, V domains shown)
VH: QVQLVQSGAEVKKPGASVKVSCKASGFNIKDYYMHWVRQAPGQRLEWMGWIDLENADTIYDAKFQGRVTITRDTSASTAYMELSSLRSEDTAVYYCARDQYGRYFYDVWGQGTLVTVSS
VL: DIVMTQSPDSLAVSLGERATINCKSSQSLLNARTGKNYLAWYQQKPGQPPKLLIYWASTRESGVPDRFSGSGSGTDFTLTISSLQAEDVAVYYCKQSYSRRTFGGGTKVEIK
notes: as for B1
Kd [1]: 53 nM
Kd [2]: 56 nM
Kd [3]: 58 nM
Kd [6]: 34 nM
Kd [7]: 29 nM
Kd [10]: 18 nM
Kd [11]: 19 nM
Kd [8]: 14 nM
Kd [9]: 11 nM

B5: Antibody No. V005 (ADI-67448) Fab (Fab, V domains shown)
VH: QVQLVQSGAEVKKPGASVKVSCKASGFNIDDYYMHWVRQAPGQRLEWMGWIDLENDNTIYDAKFQGRVTITRDTSASTAYMELSSLRSEDTAVYYCARDAYGRYFYDVWGQGTLVTVSS
VL: DIVMTQSPDSLAVSLGERATINCKSSQSLLNARTGKNYLAWYQQKPGQPPKLLIYWASTRESGVPDRFSGSGSGTDFTLTISSLQAEDVAVYYCKQSYSRRTFGGGTKVEIK
notes: Fab by papain digestion of the IgG1; VH as printed is identical to that of V004
Kd [4]: 6.98 nM
Kd [5]: 6.06 nM

B6: Antibody No. V003 (ADI-67446) Fab (Fab, V domains shown)
VH: QVQLVQSGAEVKKPGASVKVSCKASGFDIKDYYMHWVRQAPGQRLEWMGWIELENADTIYDAKFQGRVTITRDTSASTAYMELSSLRSEDTAVYYCARDAYGRYFYDVWGQGTLVTVSS
VL: DIVMTQSPDSLAVSLGERATINCKSSQSLLNARTGKNYLAWYQQKPGQPPKLLIYWASTRESGVPDRFSGSGSGTDFTLTISSLQAEDVAVYYCKQSYSRRTFGGGTKVEIK
notes: as for B1
Kd [4]: 4.57 nM
Kd [5]: 4.18 nM

B7: Antibody No. V008 (ADI-70325) Fab (Fab, V domains shown)
VH: QVQLVQSGAEVKKPGASVKVSCKASGFNIKDYYMHWVRQAPGQRLEWIGWIDLENAETVYDAKFQDRVTITRDTSASTAYMELSSLRSEDTAVYYCARDAYGRYFYDVWGQGTLVTVSS
VL: DIVMSQSPDSLAVSLGERATINCKSSQSLLNARTGKNYLAWYQQKPGQPPKLLIYWASTRSSGVPDRFSGSGSGTDFTLTISSLQAEDVAVYYCVQSYFRRTFGGGTKVEIK
notes: as for B1
Kd [4]: 0.95 nM
Kd [5]: 0.91 nM

B8: Antibody No. V012 (ADI-70329) Fab (Fab, V domains shown)
VH: QVQLVQSGAEVKKPGASVKVSCKASGFNDKDYYMHWVRQAPGQRLEWIGWIDLENAETVYDAKFQDRVTITRDTSASTAYMELSSLRSEDTAVYYCARDAYGRYFYDVWGQGTLVTVSS
VL: DIVMSQSPDSLAVSLGERATINCKSSQSLLNARTGKNYLAWYQQKPGQPPKLLIYWASTRSSGVPDRFSGSGSGTDFTLTISSLQAEDVAVYYCVQSYFRRTFGGGTKVEIK
notes: as for B1
Kd [4]: 1.65 nM
Kd [5]: 1.64 nM

B9: Antibody No. V018 (ADI-76361) Fab (Fab, V domains shown)
VH: QVQLVQSGAEVKKPGASVKVSCKASGFDIKDYYMHWVRQAPGQRLEWMGWIDLEEGNTIYDAKFQGRVTITRDTSASTAYMELSSLRSEDTAVYYCARDAYGRYFYDVWGQGTLVTVSS
VL: DIVMTQSPDSLAVSLGERATINCKSSQSLLNARTGKNYLAWYQQKPGQPPKLLIYWASTRESGVPDRFSGSGSGTDFTLTISSLQAEDVAVYYCKQSYSLRTFGGGTKVEIK
notes: as for B1
Kd [1]: 29 nM
Kd [2]: 37 nM
Kd [3]: 28 nM
Kd [6]: 33 nM
Kd [7]: 17 nM
Kd [10]: 42 nM
Kd [11]: 36 nM
Kd [8]: 31 nM
Kd [9]: 29 nM

B10: Antibody No. V016 (ADI-76359) Fab (Fab, V domains shown)
VH: QVQLVQSGAEVKKPGASVKVSCKASGFDIKDYYMHWVRQAPGQRLEWMGWIDLENANTIYDAKFQGRVTITRDTSASTAYMELSSLRSEDTAVYYCGRDAYGRYFYDVWGQGTLVTVSS
VL: DIVMTQSPDSLAVSLGERATINCKSSQSLLNARTGKNYLAWYQQKPGQPPKLLIYWASTRESGVPDRFSGSGSGTDFTLTISSLQAEDVAVYYCKQSYSLRTFGGGTKVEIK
notes: as for B1
Kd [1]: 87 nM
Kd [2]: 77 nM
Kd [3]: 75 nM
Kd [6]: 37 nM
Kd [7]: 49 nM
Kd [10]: 14 nM
Kd [11]: 16 nM
Kd [8]: 22 nM
Kd [9]: 23 nM
